The values that follow come from patent publication US20260242735A1 (UNIVERSIT T BASEL, published 2026).

What all share (assay): alanine scan, flow cytometry, HEK293-T;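 note: antibody binding to each alanine-substituted CD33 mutant expressed transiently in HEK293-T, read as fluorescence minus background, mean of duplicates, relative to wild-type CD33 set as 100%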
The target of assay [1] is human CD33 G249A (human, UniProt P20138 18-364).
Assay [2] addresses human CD33 Q251A (human, UniProt P20138 18-364).
Assay [3] has as its target human CD33 T253A (human, UniProt P20138 18-364).
Assay [4] addresses human CD33 G256A (human, UniProt P20138 18-364).
Assay [5] has as its target human CD33 V258A (human, UniProt P20138 18-364).
Assay [6] addresses human CD33 G264A (human, UniProt P20138 18-364).
For assay [7], the target named is human CD33 L270A (human, UniProt P20138 18-364).
The target of assay [8] is human CD33 L271A (human, UniProt P20138 18-364).
Assay [9] deals with human CD33 C274A (human, UniProt P20138 18-364).
In assay [10] the target is human CD33 F279A (human, UniProt P20138 18-364).
The target in assay [11] is human CD33 F280A (human, UniProt P20138 18-364).
Assay [12] addresses human CD33 A290S (human, UniProt P20138 18-364).
Assay [13] has as its target human CD33 A293S (human, UniProt P20138 18-364).
For assay [14], the target named is human CD33 V294A (human, UniProt P20138 18-364).
In assay [15] the target is human CD33 P244A (human, UniProt P20138 18-364).
Assay [16] concerns the target human CD33 T299A (human, UniProt P20138 18-364).
Assay [17] concerns the target human CD33 A306S (human, UniProt P20138 18-364).
The target in assay [18] is human CD33 H310A (human, UniProt P20138 18-364).
Assay [19] concerns the target human CD33 Q311A (human, UniProt P20138 18-364).

Chain of human CD33 H310A (P20138 18-364 H310A limits assumed): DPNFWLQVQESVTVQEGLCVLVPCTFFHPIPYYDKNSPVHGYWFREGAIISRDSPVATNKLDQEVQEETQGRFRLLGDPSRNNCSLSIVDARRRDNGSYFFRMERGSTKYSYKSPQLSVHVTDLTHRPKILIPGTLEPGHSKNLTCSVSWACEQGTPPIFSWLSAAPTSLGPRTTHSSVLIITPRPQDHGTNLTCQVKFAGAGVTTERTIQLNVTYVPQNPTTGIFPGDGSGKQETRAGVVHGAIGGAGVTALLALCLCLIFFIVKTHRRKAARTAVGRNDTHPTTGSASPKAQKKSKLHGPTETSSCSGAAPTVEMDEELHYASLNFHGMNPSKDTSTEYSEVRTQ
Chain of human CD33 T253A (P20138 18-364 T253A limits assumed): as the sequence (P20138 18-364 H310A limits assumed) above, with T236A, A293H counted along it
Chain of human CD33 C274A (P20138 18-364 C274A limits assumed): as the sequence (P20138 18-364 H310A limits assumed) above, with C257A, A293H counted along it
Chain of human CD33 G264A (P20138 18-364 G264A limits assumed): as the sequence (P20138 18-364 H310A limits assumed) above, with G247A, A293H counted along it
Chain of human CD33 Q311A (P20138 18-364 Q311A limits assumed): as the sequence (P20138 18-364 H310A limits assumed) above, with A293H, Q294A counted along it
Chain of human CD33 G256A (P20138 18-364 G256A limits assumed): as the sequence (P20138 18-364 H310A limits assumed) above, with G239A, A293H counted along it
Chain of human CD33 A290S (P20138 18-364 A290S limits assumed): as the sequence (P20138 18-364 H310A limits assumed) above, with A273S, A293H counted along it
Chain of human CD33 T299A (P20138 18-364 T299A limits assumed): as the sequence (P20138 18-364 H310A limits assumed) above, with T282A, A293H counted along it
Chain of human CD33 G249A (P20138 18-364 G249A limits assumed): as the sequence (P20138 18-364 H310A limits assumed) above, with G232A, A293H counted along it
Chain of human CD33 Q251A (P20138 18-364 Q251A limits assumed): as the sequence (P20138 18-364 H310A limits assumed) above, with Q234A, A293H counted along it
Chain of human CD33 A293S (P20138 18-364 A293S limits assumed): as the sequence (P20138 18-364 H310A limits assumed) above, with A276S, A293H counted along it
Chain of human CD33 F279A (P20138 18-364 F279A limits assumed): as the sequence (P20138 18-364 H310A limits assumed) above, with F262A, A293H counted along it
Chain of human CD33 F280A (P20138 18-364 F280A limits assumed): as the sequence (P20138 18-364 H310A limits assumed) above, with F263A, A293H counted along it
Chain of human CD33 P244A (P20138 18-364 P244A limits assumed): as the sequence (P20138 18-364 H310A limits assumed) above, with P227A, A293H counted along it
Chain of human CD33 V294A (P20138 18-364 V294A limits assumed): as the sequence (P20138 18-364 H310A limits assumed) above, with V277A, A293H counted along it
Chain of human CD33 V258A (P20138 18-364 V258A limits assumed): as the sequence (P20138 18-364 H310A limits assumed) above, with V241A, A293H counted along it
Chain of human CD33 L271A (P20138 18-364 L271A limits assumed): as the sequence (P20138 18-364 H310A limits assumed) above, with L254A, A293H counted along it
Chain of human CD33 L270A (P20138 18-364 L270A limits assumed): as the sequence (P20138 18-364 H310A limits assumed) above, with L253A, A293H counted along it
Chain of human CD33 A306S (P20138 18-364 A306S limits assumed): as the sequence (P20138 18-364 H310A limits assumed) above, with A289S, A293H counted along it

B1: Refmab #1 (antibody, V domains shown)
VH: EVQLVQSGAEVKKPGSSVKVSCKASGYTITDSNIHWVRQAPGQSLEWIGYIYPYNGGTDYNQKFKNRATLTVDNPTNTAYMELSSLRSEDTAFYYCVNGNPWLAYWGQGTLVTVSS
VL: DIQLTQSPSTLSASVGDRVTITCRASESLDNYGIRFLTWFQQKPGKAPKLLMYAASNQGSGVPSRFSGSGSGTEFTLTISSLQPDDFATYYCQQTKEVPWSFGQGTKVEVK
notes: The alanine scan used IgG or Fab; also called hP67.6
For the molecule B1, the “Mean % WT Binding” value in assay [1] stood at 89.2 % WT binding; in [2], 98.8 % WT binding; in assay [3], 94.5 % WT binding; in assay [4], 89.8 % WT binding; in assay [5] it was 99.8 % WT binding; in assay [6], 95 % WT binding. Besides, the “Mean % WT Binding” value stood at 102 % WT binding in [7]; 100 % WT binding in [8]; 88.4 % WT binding in assay [9]; 104 % WT binding in assay [10]; 98.4 % WT binding in assay [11]; 105 % WT binding in [12]. For the same molecule, the “Mean % WT Binding” value in [13] was determined as 90.6 % WT binding; in [14], 91.7 % WT binding; in assay [15] it was 84.3 % WT binding; in [16], 90.3 % WT binding; in assay [17], 102 % WT binding; in assay [18], 97.4 % WT binding. Further, in assay [19], the “Mean % WT Binding” value came to 90.4 % WT binding.

B2: Refmab #4 (antibody, V domains shown)
VH: QVQLVQSGAEVKKPGESVKVSCKASGYTFTNYGMNWVKQAPGQGLEWMGWINTYTGEPTYADKFQGRVTMTTDTSTSTAYMEIRNLGGDDTAVYYCARWSWSDGYYVYFDYWGQGTSVTVSS
VL: DIVMTQSPDSLTVSLGERTTINCKSSQSVLDSSTNKNSLAWYQQKPGQPPKLLLSWASTRESGIPDRFSGSGSGTDFTLTIDSPQPEDSATYYCQQSAHFPITFGQGTRLEIK
notes: The alanine scan used IgG or Fab
On to B2, for which the “Mean % WT Binding” value in assay [1] worked out at 111 % WT binding; in [2], 97.5 % WT binding; in [3] it was 108 % WT binding; in assay [4], 104 % WT binding; in assay [5], 95.8 % WT binding; in assay [6], 89.9 % WT binding. Moreover, the “Mean % WT Binding” value in assay [7] was 97.3 % WT binding; in [8], 113 % WT binding; in assay [9], 103 % WT binding; in assay [10], 103 % WT binding; in assay [11], 92.3 % WT binding; in assay [12] it was 107 % WT binding. The “Mean % WT Binding” value is 106 % WT binding in [13]; 97.8 % WT binding in assay [14]; 100 % WT binding in [15]; 92.9 % WT binding in assay [16]; 79.3 % WT binding in [17]; 94.3 % WT binding in assay [18]. In assay [19], the “Mean % WT Binding” value is 102 % WT binding.

B3: Refmab #2 (antibody, V domains shown)
VH: QVQLVQSGAEVKKPGSSVKVSCKASGGTFSDYAISWVRQAPGQGLEWMGRIIPILGVADYAQKFQGRVTITADKSTRTAYMELSSLRSEDTAVYYCARNWADAFDIWGQGTMVTVSS
VL: DIQLTQSPSSLSASVGDRVTITCRASQGISSVLAWYQQKPGKAPKLLIYDASSLESGVPSRFSGSGSGTDFTLTISSLQPEDFATYYCQQFDSSITFGQGTKLEIK
notes: as for B2
Regarding B3, the “Mean % WT Binding” value stood at 127 % WT binding in assay [1]; 117 % WT binding in assay [2]; 104 % WT binding in assay [3]; 117 % WT binding in assay [4]; 111 % WT binding in assay [5]; 105 % WT binding in assay [6]. For the same molecule, the “Mean % WT Binding” value worked out at 119 % WT binding in assay [7]; 113 % WT binding in [8]; 117 % WT binding in [9]; 116 % WT binding in [10]; 120 % WT binding in assay [11]; 120 % WT binding in assay [12]. Besides, the “Mean % WT Binding” value in assay [13] was 114 % WT binding; in assay [14] it was 105 % WT binding; in assay [15], 112 % WT binding; in assay [16], 96.3 % WT binding; in assay [17] it was 85.1 % WT binding; in assay [18], 112 % WT binding. Besides, in [19], the “Mean % WT Binding” value worked out at 99.5 % WT binding.

B4: Refmab #3 (antibody, V domains shown)
VH: QVQLVQSGAEVKKPGSSVKVSCKASGYTFTDYNMHWVRQAPGQGLEWIGYIYPYNGGTGYNQKFKSKATITADESTNTAYMELSSLRSEDTAVYYCARGRPAMDYWGQGTLVTVSS
VL: DIQMTQSPSSLSASVGDRVTITCRASESVDNYGISFMNWFQQKPGKAPKLLIYAASNQGSGVPSRFSGSGSGTDFTLTISSLQPDDFATYYCQQSKEVPWTFGQGTKVEIK
notes: as for B2
For B4, the “Mean % WT Binding” value is 132 % WT binding in assay [1]; 93.3 % WT binding in assay [2]; 98.1 % WT binding in [3]; 94.9 % WT binding in assay [4]; 106 % WT binding in assay [5]; 89 % WT binding in assay [6]. Moreover, the “Mean % WT Binding” value amounted to 125 % WT binding in [7]; 135 % WT binding in [8]; 111 % WT binding in assay [9]; 138 % WT binding in assay [10]; 99 % WT binding in [11]; 97.2 % WT binding in assay [12]. Also, the “Mean % WT Binding” value in assay [13] stood at 72.9 % WT binding; in [14], 95.8 % WT binding; in [15] it was 138 % WT binding; in [16], 85.6 % WT binding; in assay [17], 111 % WT binding; in assay [18], 101 % WT binding. Also, the “Mean % WT Binding” value in assay [19] was found to be 124 % WT binding.
